This is an account of results in PMC3082896.

The data set has as its system LdTOP1L/S large subunit (LdTOP1L);LdTOP1L/S small subunit (LdTOP1S) (Leishmania donovani;Leishmania donovani). Nature of the data set: EMSA.

“GAAAAAAGACTTAGAAAAATTTTTA (double strand)”: the binding signal (% of input DNA bound) was found to be 79.
